Measurements: patent publication US7255862

Tests used:
[1] = target: feline immunodeficiency virus (FIV) Gag, Villefranche strain, expressed by ALVAC recombinants (vCP21 (feline immunodeficiency virus, Villefranche strain)); experiment: sandwich kinetic ELISA, plate coated with pooled FIV gag-specific MAb 2 ug/well, gag lysate 0.2 ug/well, control rabbit serum 1:100
[2] = target: feline immunodeficiency virus (FIV) Gag, Villefranche strain, expressed by ALVAC recombinants (vCP21 (feline immunodeficiency virus, Villefranche strain)); experiment: sandwich kinetic ELISA, plate coated with pooled FIV gag-specific MAb 2 ug/well, gag lysate 1 ug/well, control rabbit serum 1:100
[3] = target: feline immunodeficiency virus (FIV) Gag, Villefranche strain, expressed by ALVAC recombinants (vCP21 (feline immunodeficiency virus, Villefranche strain)); experiment: sandwich kinetic ELISA, plate coated with pooled FIV env-specific MAb 2 ug/well (mismatched capture control), gag lysate 5 ug/well, control rabbit serum 1:100
[4] = target: feline immunodeficiency virus (FIV) Gag, Villefranche strain, expressed by ALVAC recombinants (vCP21 (feline immunodeficiency virus, Villefranche strain)); experiment: sandwich kinetic ELISA, plate coated with pooled FIV gag-specific MAb 2 ug/well, gag lysate 5 ug/well, control rabbit serum 1:100
[5] = target: feline immunodeficiency virus (FIV) Gag, Villefranche strain, expressed by ALVAC recombinants (vCP21 (feline immunodeficiency virus, Villefranche strain)); experiment: sandwich kinetic ELISA, plate coated with pooled FIV env-specific MAb 2 ug/well (mismatched capture control), gag lysate 1 ug/well, control rabbit serum 1:100
[6] = target: feline immunodeficiency virus (FIV) Gag, Villefranche strain, expressed by ALVAC recombinants (vCP21 (feline immunodeficiency virus, Villefranche strain)); experiment: sandwich kinetic ELISA, plate coated with pooled FIV env-specific MAb 2 ug/well (mismatched capture control), gag lysate 0.2 ug/well, control rabbit serum 1:100

Rabbit A039 prebleed serum
KELISA (mOD/min) [1]: 1.3 mOD/min
KELISA (mOD/min) [2]: 1.2 mOD/min
KELISA (mOD/min) [3]: 1 mOD/min
KELISA (mOD/min) [4]: 1 mOD/min
KELISA (mOD/min) [5]: 0.8 mOD/min
KELISA (mOD/min) [6]: 0.9 mOD/min
